Results reported in the supplement of paper PMC9170038.

Tested on: MS2 coat protein
Experiment: apparent KD of MS2 coat protein; designed switch direction (-1 OFF switch, 1 ON switch): -1; higher = weaker reporter binding
Outline: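 Three titration conditions were used: no input, 200 uM small-molecule ligand, and an oligonucleotide input. In each, SNAP-549-labelled MS2 coat protein was raised from 0.7 or 1.5 nM, doubling, to 3 µM over designed RNA switches transcribed on Illumina chips by stalled E. coli RNA polymerase. Curve fits of normalised cluster fluorescence gave values whose per-design median over clusters is the apparent KD.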

[1] = Eterna round: R95, input ligand: microRNA oligo, concentration not stated
[2] = Eterna round: R95, input ligand: FMN 200 uM
[3] = Eterna round: R95, input ligand: none
[4] = input ligand: microRNA oligo, concentration not stated

Sequence	apparent KD of MS2 coat protein [1] [nM]	apparent KD of MS2 coat protein [2] [nM]	apparent KD of MS2 coat protein [3] [nM]	apparent KD of MS2 coat protein (input ligand: FMN 200 uM) [nM]	apparent KD of MS2 coat protein [4] [nM]	apparent KD of MS2 coat protein (input ligand: none) [nM]
GCUGGACAUGAGGAUCACCCAUGUGAGGAUAUCGGCUGGUACGUGUUGGCUGGCAUCUCGAGAAGGCACAUAGU [Exclusion 1 V63] (puzzle: Exclusion 1)	28.2	–	–	–	–	–
CCGGUAUAGGAGGAUAUAGGAGUCGAUAGACACCUAGAAGGCCUGACAUGAGGAUCACCCAUGUGUCCUUCCGG [Fiskers Ex 6 - 95] (puzzle: Exclusion 6)	17.7	–	–	–	–	–
AAAAUGCAAGGAUAUACAUAGAUCCGACCUACUUAAAACAAACAUGAGGAUCACCCAUGUAGAAGGUGCCAAAA [Raxerebiti] (puzzle: Exclusion 2)	23.7	44.9	25.5	–	–	–
AACCCUGAUGACAAAUUACAUGAGGAUCACCCAUGUGCCUCACAGGAUAUCCCAGCACGUCGCUAGGAGAAGGGUGACGCGCCA [Tienen] (Eterna round: R96, puzzle: Exclusion NG 3)	–	–	–	37.5	25.1	30
AGCAAGUUAAGGUUGAUGCACAUGAGGAUCACCCAUGUUCGUCUUACAUGGAAAGUGGACGCGUUUAUGGAAAGGAG [Eternabot (L2) Solution 36] (Eterna round: R97, puzzle: Sensor, turn-off variant 1)	–	–	–	28.2	–	28.2
AGCUAGUCAGGAUAUUCUAUUAAUUACAUGAGGAUCACCCAUGUGAAUGGACGAGGGUGUGAAGAAGGGACUAGCG [Omei Ex5 A17] (Eterna round: R97, puzzle: Exclusion 5)	–	–	–	94.4	–	226
AGUAAGCUAGGAUAUGCUUUGGGAAAGCAUUCCUUCGAUAAACUUGAGGAUCACCCAAGUAGAAGGAGCUUACA [salish99_ex2_r4_004] (Eterna round: R97, puzzle: Exclusion 2)	–	–	–	20.2	–	13.8
AGUACUAACACGAACGUGUUAGUACAAUAAGCUUGUGAAACAUGAGGAUCACCCAUGUCCUCAUAAGCUCGUCUUAU [salish99_TOv2_r3_034] (puzzle: Sensor v3, turn-off variant 2)	775	17.9	16.2	–	–	–
AAUAACAGAGGAUAUACUAUUUUAUGUGUUUGUUAUUUUAAACAUGAGGAUCACCCAUGUAGAAGGCUGAUUAA [JMF 44] (puzzle: Exclusion 2)	38.5	–	–	–	–	–
GGGCCACAUGAGGAUCACCCAUGUUAGGAUAUUUGUUCGGUGCUAUGAAUUCAAGGCUAGAGAAGGAACAGGGA [Eternabot (L1) Solution 46] (Eterna round: R97, puzzle: Exclusion 1)	–	–	–	22.4	–	23
AAGUACCGUCACGAUAGUGAUGGUACAACAAGCAAAUACACAUGAGGAUCACCCAUGUCCUCUUUUGCUCGUCUUGU [Sensor 3 - 0] (puzzle: Sensor v3, turn-off variant 2)	236	674	767	–	–	–
AGUACUAACACGACAGUGUUAGUACAAUAAGCUUGUGAAACAUGAGGAUCACCCAUGUCCUCAUAAGCUCGUCUUAU [salish99_TOv2_r3_031] (Eterna round: R96, puzzle: Sensor v3, turn-off variant 2)	–	–	–	15.4	431	17.2
AAUAACAGAGGAUAUACUGUUUUAUGUGUUUAUUGUUUUGAACAUGAGGAUCACCCAUGUAGAAGGCUGAAUAA [JMF 25] (puzzle: Exclusion 2)	20.1	–	–	–	–	–
ACAAAGUGAGGAUAUACUAAAACCCUCAUACCCAAAAGGGAACAUGAGGAUCACCCAUGUAGAAGGCACAUAAU [Esmainleor] (puzzle: Exclusion 2)	100	549	92.3	–	–	–
GCAUGCUAUGUCAGGAUAUACCUCUGGAUACAUAGGUAGAAGGGACAUGAGGAUCACCCAUGUCCUCAUCAUGC [Fiskers BMX 4 - 25] (puzzle: Brourd's mod of Exclusion 4)	13.5	–	–	–	–	–
UUUAAUUUUUUUUUUUUACAAGCUUUUUGCUCGUCUUAUACAUGAGGAUCACCCAUGUAAGUGGAGGGUAAAUUAUC [JMF 87] (puzzle: Sensor v3, turn-off variant 2)	39.4	19.4	15.2	–	–	–
AAAUCGGAGGAGGAUAUCGUACAGGAAACGGUGCGAGAAGGUUUCACAUGAGGAUCACCCAUGUCAAAUAGCGA [EX6 #58] (Eterna round: R97, puzzle: Exclusion 6)	–	–	–	21	–	16.4
GAUCCUCAGACGGACGUCACGAAACAUGAGGAUCACCCAUGUGAGGAUAUCUCCAAAAGGUCGGCAGAGAAGGCACCAUAACAA [Eternabot solution 19] (Eterna round: R96, puzzle: Exclusion NG 3)	–	–	–	261	131	139
GCACGAAGUGUAGGAUAUCUGUGCGAUUAGCUCAGAGAAGGACACAUGAGGAUCACCCAUGUGUUCCAAUACUCAAAUACGUGC [Eli exng1 - 0622] (Eterna round: R96, puzzle: Exclusion NG 1)	–	–	–	10.1	9.09	12.2
CUGCUGGAGCUUUGCUUUGGUCGUACAUGAGGAUCACCCAUGUAGGAUAUGGUAAGAUUUGCUUGCUAGAAGGAUAGAGUGGUC [salish99_ExNG3_r04_611] (Eterna round: R96, puzzle: Exclusion NG 3)	–	–	–	80.9	78.2	49.7
UUAUAUAGUAUAGGAUAUUAGAGGAGAAUGGUGAUAGAGACAUGAGGAUCACCCAUGUGAGGAGAUAAGAAGGGUAAUAAUUAU [AK ExNG2-V2-3] (Eterna round: R96, puzzle: Exclusion NG 2)	–	–	–	326	176	351
GCUGACAAGCUGGAGACAGCAGAGACAUGAGGAUCACCCAUGUAGGAUAUCGAUGCGAAAAGCAUCGAGAAGGGCAUAGUCAGC [exng3 v2 a] (Eterna round: R96, puzzle: Exclusion NG 3)	–	–	–	13.1	9.71	17.2
AUGAUGUUAGGAUAUCAUUGCCGGGUUUGAAAACACGGGAUUGAGAAGGAACAUGAGGAUCACCCAUGUGCCUC [EX4 C.9] (Eterna round: R97, puzzle: Exclusion 4)	–	–	–	118	–	27.5
GCGGAGAGAGAAGGAUAUUGAAAUGCUUCUACAUGAGGAUCACCCAUGUUCGGCAGACAUGGGACCAAGAAGGUCUAUGUCGCG [Eternabot solution 27] (Eterna round: R96, puzzle: Exclusion NG 2)	–	–	–	70.2	40.4	55.4
AGAACUCUAGUAGGAUAUGUCGGAUAUGUUGUUGAGGUUCACCCAACGACGUCAAUGACAGAAGGACAGAAGGACUCCUGUUCA [pwkr exNG2 2xFMN 1xF5.8] (Eterna round: R96, puzzle: Exclusion NG 2)	–	–	–	1020	3670	711
GCAGGUUAAGUCAGGAUAUACCUAUGGAUACAUAGGUAGAAGGGACAUGAGGAUCACCCAUGUGGCUCACCUGC [Fiskers BMX 4 - 60] (puzzle: Brourd's mod of Exclusion 4)	21.6	–	–	–	–	–
